{
  "source": "patent US6585979",
  "key": {"[1]": {"target": "MN-rgp120 (herpes simplex virus type 1; HIV-1, MN strain)", "assay": "capture ELISA (FIG. 5C)"}, "[2]": {"target": "MN-rgp120 (herpes simplex virus type 1; HIV-1, MN strain)", "assay": "capture ELISA, MAb at 2 ug/ml (reference)"}, "[3]": {"target": "rgp120 from breakthrough virus clone C17.1 (herpes simplex virus type 1; HIV-1, breakthrough virus of vaccinee C17)", "assay": "capture ELISA, MAb at 2 ug/ml"}, "[4]": {"target": "rgp120 from breakthrough virus clone C17.3 (herpes simplex virus type 1; HIV-1, breakthrough virus of vaccinee C17)", "assay": "capture ELISA, MAb at 2 ug/ml"}, "[5]": {"target": "rgp120 from breakthrough virus clone C7.2 (herpes simplex virus type 1; HIV-1, breakthrough virus of vaccinee C7)", "assay": "capture ELISA, MAb at 2 ug/ml"}, "[6]": {"target": "rgp120 from breakthrough virus clone C15.2 (herpes simplex virus type 1; HIV-1, breakthrough virus of vaccinee C15)", "assay": "capture ELISA, MAb at 2 ug/ml"}, "[7]": {"target": "rgp120 from breakthrough virus clone C10.5 (herpes simplex virus type 1; HIV-1, breakthrough virus of vaccinee C10)", "assay": "capture ELISA, MAb at 2 ug/ml"}, "[8]": {"target": "rgp120 from breakthrough virus clone C6.5 (herpes simplex virus type 1; HIV-1, breakthrough virus of vaccinee C6)", "assay": "capture ELISA, MAb at 2 ug/ml"}, "[9]": {"target": "rgp120 from breakthrough virus clone C8.6 (herpes simplex virus type 1; HIV-1, breakthrough virus of vaccinee C8)", "assay": "capture ELISA, MAb at 2 ug/ml"}, "[10]": {"target": "rgp120 from breakthrough virus clone C8.3 (herpes simplex virus type 1; HIV-1, breakthrough virus of vaccinee C8)", "assay": "capture ELISA, MAb at 2 ug/ml"}, "[11]": {"target": "rgp120 from breakthrough virus clone C11.5 (herpes simplex virus type 1; HIV-1, breakthrough virus of vaccinee C11)", "assay": "capture ELISA, MAb at 2 ug/ml"}, "[12]": {"target": "rgp120 from breakthrough virus clone C11.7 (herpes simplex virus type 1; HIV-1, breakthrough virus of vaccinee C11)", "assay": "capture ELISA, MAb at 2 ug/ml"}, "[13]": {"target": "rgp120 from breakthrough virus clone C15.3 (herpes simplex virus type 1; HIV-1, breakthrough virus of vaccinee C15)", "assay": "capture ELISA, MAb at 2 ug/ml"}, "[14]": {"target": "rgp120 from breakthrough virus clone C6.1 (herpes simplex virus type 1; HIV-1, breakthrough virus of vaccinee C6)", "assay": "capture ELISA, MAb at 2 ug/ml"}, "[15]": {"target": "rgp120 from breakthrough virus clone C10.7 (herpes simplex virus type 1; HIV-1, breakthrough virus of vaccinee C10)", "assay": "capture ELISA, MAb at 2 ug/ml"}},
  "data": [
    {"substance": "MAb 50.1 (antibody)", "values": [
      {"measurement": "fold greater binding than to any of the breakthrough virus envelope proteins", "setting": "[1]", "value": 10, "unit": "fold"},
      {"measurement": "relative reactivity (OD ratio to MN-rgp120)", "setting": "[2]", "value": 1},
      {"measurement": "relative reactivity (OD ratio to MN-rgp120)", "setting": "[3]", "value": 0.52},
      {"measurement": "relative reactivity (OD ratio to MN-rgp120)", "setting": "[4]", "value": 0.56},
      {"measurement": "relative reactivity (OD ratio to MN-rgp120)", "setting": "[5]", "value": 0.6},
      {"measurement": "relative reactivity (OD ratio to MN-rgp120)", "setting": "[6]", "value": 0.47},
      {"measurement": "relative reactivity (OD ratio to MN-rgp120)", "setting": "[7]", "value": 0.4},
      {"measurement": "relative reactivity (OD ratio to MN-rgp120)", "setting": "[8]", "value": 0.33},
      {"measurement": "relative reactivity (OD ratio to MN-rgp120)", "setting": "[9]", "value": 0.34},
      {"measurement": "relative reactivity (OD ratio to MN-rgp120)", "setting": "[10]", "value": 0.37},
      {"measurement": "relative reactivity (OD ratio to MN-rgp120)", "setting": "[11]", "value": 0},
      {"measurement": "relative reactivity (OD ratio to MN-rgp120)", "setting": "[12]", "value": 0},
      {"measurement": "relative reactivity (OD ratio to MN-rgp120)", "setting": "[13]", "value": 0.37},
      {"measurement": "relative reactivity (OD ratio to MN-rgp120)", "setting": "[14]", "value": 0.37},
      {"measurement": "relative reactivity (OD ratio to MN-rgp120)", "setting": "[15]", "value": 0.48}
    ]},
    {"substance": "MAb 15e (antibody)", "values": [
      {"measurement": "relative reactivity (OD ratio to MN-rgp120)", "setting": "[2]", "value": 1},
      {"measurement": "relative reactivity (OD ratio to MN-rgp120)", "setting": "[3]", "value": 0.33},
      {"measurement": "relative reactivity (OD ratio to MN-rgp120)", "setting": "[4]", "value": 0.33},
      {"measurement": "relative reactivity (OD ratio to MN-rgp120)", "setting": "[5]", "value": 0.71},
      {"measurement": "relative reactivity (OD ratio to MN-rgp120)", "setting": "[6]", "value": 0.92},
      {"measurement": "relative reactivity (OD ratio to MN-rgp120)", "setting": "[7]", "value": 0.46},
      {"measurement": "relative reactivity (OD ratio to MN-rgp120)", "setting": "[8]", "value": 0.75},
      {"measurement": "relative reactivity (OD ratio to MN-rgp120)", "setting": "[9]", "value": 0.29},
      {"measurement": "relative reactivity (OD ratio to MN-rgp120)", "setting": "[10]", "value": 0.38},
      {"measurement": "relative reactivity (OD ratio to MN-rgp120)", "setting": "[11]", "value": 0.17},
      {"measurement": "relative reactivity (OD ratio to MN-rgp120)", "setting": "[12]", "value": 0.17},
      {"measurement": "relative reactivity (OD ratio to MN-rgp120)", "setting": "[13]", "value": 0.63},
      {"measurement": "relative reactivity (OD ratio to MN-rgp120)", "setting": "[14]", "value": 0.17},
      {"measurement": "relative reactivity (OD ratio to MN-rgp120)", "setting": "[15]", "value": 0.5}
    ]}
  ]
}
